Earlier results on one molecule are cited in paper PMC10293842 (Proceedings of the National Academy of Sciences of the …, 2023).

This data set concerns Omicron BA.1 and BA.2.

B1: Adintrevimab (antibody, chains of the INN, looked up, V domains shown)
VH: EVQLVESGGGLVKPGGSLRLSCAASGFTFSSYYMNWVRQAPGKGLEWVSSISEDGYSTYYPDSLKGRFTISRDSAKNSLYLQMNSLRADDTAVYYCARDFSGHTAWAGTGFEYWGQGTLVTVSS
VL: QSVLTQPPSVSGAPGQRITISCTGSSSNIGAGYDVHWYQQLPGTAPKLLIYGSSSRNSGVPDRFSGSKSGTSASLAITGLQAEDEADYYCQSYDSSLSVLYTFGTGTKVTVL
For the molecule B1, the decrease in activity is recorded as 20 fold.
